Values of other authors, collected in patent publication US5474978A, “Insulin analog formulations” (Eli Lilly and Company, priority 1994, dated 1995).

conditions: compared with Zn-insulin

Row | Substance | Zn-induced association
1 | Ala^B28 Pro^B29 -hI | little or no Zn-induced association
2 | Ala^B28 insulin | demonstrate Zn-induced association, but less than Zn-insulin
3 | Asp^B28 Pro^B29 -hI | little or no Zn-induced association
4 | Asp^B28 insulin | demonstrate Zn-induced association, but less than Zn-insulin
5 | Lys^B28 insulin | demonstrate Zn-induced association, but less than Zn-insulin
6 | Pro^B29 insulin | demonstrate Zn-induced association, but less than Zn-insulin
